Laboratory results as given in patent publication WO2006132352A1.

Target: MG10 (Gln213 to Ala231 of the human Mpl amino acid sequence) and GST fusion protein (human) (UniProt P40238)
Experiment: SPR, Biacore 3000, MG10-GST amine-coupled on CM5, sc(Fv)2 at about 5-150 nM as analyte, bivalent analyte model

Kd | Binder
10.2 nM | humanized anti-human Mpl antibody hVB22B u2-wz4 sc(Fv)2 (bulk, before separation of the structural isomers) (scFv, from another filing) QVQLVQSGPEVKKPGASVKVSCKASGYTFTNSWMNWVRQRPGKGLEWIGRIYPGDGETIYNGKFRVRVTITADESTSTAYMQLSSLRSEDTAVYYCARGYDDYSFAYWGQGTTVTVSSGGGGSGGGGSGGGGSDIVMTQSPLSLPVTPGEPASISCRSSKSLLHSNGNTYLYWFLQKPGQSPQLLIYRMSNLASGVPDRFSGSGSGTDFTLKISRVEAEDVGVYYCMQHIEYPFTFGQGTKLEIKGGGGSGGGGSGGGGSQVQLVQSGPEVKKPGASVKVSCKASGYTFTNSWMNWVRQRPGKGLEWIGRIYPGDGETIYNGKFRVRVTITADESTSTAYMQLSSLRSEDTAVYYCARGYDDYSFAYWGQGTTVTVSSGGGGSGGGGSGGGGSDIVMTQSPLSLPVTPGEPASISCRSSKSLLHSNGNTYLYWFLQKPGQSPQLLIYRMSNLASGVPDRFSGSGSGTDFTLKISRVEAEDVGVYYCMQHIEYPFTFGQGTKLEIK
9.92 nM | hVB22B u2-wz4 sc(Fv)2 peak2 (single chain diabody type structural isomer) (scFv, from another filing) QVQLVQSGPEVKKPGASVKVSCKASGYTFTNSWMNWVRQRPGKGLEWIGRIYPGDGETIYNGKFRVRVTITADESTSTAYMQLSSLRSEDTAVYYCARGYDDYSFAYWGQGTTVTVSSGGGGSGGGGSGGGGSDIVMTQSPLSLPVTPGEPASISCRSSKSLLHSNGNTYLYWFLQKPGQSPQLLIYRMSNLASGVPDRFSGSGSGTDFTLKISRVEAEDVGVYYCMQHIEYPFTFGQGTKLEIKGGGGSGGGGSGGGGSQVQLVQSGPEVKKPGASVKVSCKASGYTFTNSWMNWVRQRPGKGLEWIGRIYPGDGETIYNGKFRVRVTITADESTSTAYMQLSSLRSEDTAVYYCARGYDDYSFAYWGQGTTVTVSSGGGGSGGGGSGGGGSDIVMTQSPLSLPVTPGEPASISCRSSKSLLHSNGNTYLYWFLQKPGQSPQLLIYRMSNLASGVPDRFSGSGSGTDFTLKISRVEAEDVGVYYCMQHIEYPFTFGQGTKLEIK
12.4 nM | hVB22B u2-wz4 sc(Fv)2 peak1 (bivalent scFv type structural isomer) (scFv, from another filing) QVQLVQSGPEVKKPGASVKVSCKASGYTFTNSWMNWVRQRPGKGLEWIGRIYPGDGETIYNGKFRVRVTITADESTSTAYMQLSSLRSEDTAVYYCARGYDDYSFAYWGQGTTVTVSSGGGGSGGGGSGGGGSDIVMTQSPLSLPVTPGEPASISCRSSKSLLHSNGNTYLYWFLQKPGQSPQLLIYRMSNLASGVPDRFSGSGSGTDFTLKISRVEAEDVGVYYCMQHIEYPFTFGQGTKLEIKGGGGSGGGGSGGGGSQVQLVQSGPEVKKPGASVKVSCKASGYTFTNSWMNWVRQRPGKGLEWIGRIYPGDGETIYNGKFRVRVTITADESTSTAYMQLSSLRSEDTAVYYCARGYDDYSFAYWGQGTTVTVSSGGGGSGGGGSGGGGSDIVMTQSPLSLPVTPGEPASISCRSSKSLLHSNGNTYLYWFLQKPGQSPQLLIYRMSNLASGVPDRFSGSGSGTDFTLKISRVEAEDVGVYYCMQHIEYPFTFGQGTKLEIK
